What all share (assay): cell-based or functional assay
In test [1] the target is T1, human glucose-dependent insulinotropic polypeptide receptor (human) (UniProt P48546).
T1 sequence (looked up): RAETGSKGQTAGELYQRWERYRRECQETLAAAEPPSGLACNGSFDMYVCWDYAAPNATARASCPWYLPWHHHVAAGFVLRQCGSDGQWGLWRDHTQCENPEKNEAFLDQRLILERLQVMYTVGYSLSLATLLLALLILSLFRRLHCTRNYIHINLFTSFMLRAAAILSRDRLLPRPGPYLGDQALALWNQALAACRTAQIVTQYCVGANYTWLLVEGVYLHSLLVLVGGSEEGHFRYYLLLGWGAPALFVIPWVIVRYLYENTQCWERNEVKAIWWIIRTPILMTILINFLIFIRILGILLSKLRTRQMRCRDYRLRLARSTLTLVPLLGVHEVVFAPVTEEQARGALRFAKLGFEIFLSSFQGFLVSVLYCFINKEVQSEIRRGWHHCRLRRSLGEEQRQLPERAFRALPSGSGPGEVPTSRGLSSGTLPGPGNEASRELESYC

For test [2], the target named is recombinant human glucagon receptor (human) (UniProt P47871).
Test [3] addresses human Glucagon-Like Peptide-1 receptor (human) (UniProt P43220).

This note sets out measurements from patent US20170112904A1.

Some results are limits rather than exact numbers.

human Glucagon-Like Peptide-1 receptor (human), sequence (P43220 24-463): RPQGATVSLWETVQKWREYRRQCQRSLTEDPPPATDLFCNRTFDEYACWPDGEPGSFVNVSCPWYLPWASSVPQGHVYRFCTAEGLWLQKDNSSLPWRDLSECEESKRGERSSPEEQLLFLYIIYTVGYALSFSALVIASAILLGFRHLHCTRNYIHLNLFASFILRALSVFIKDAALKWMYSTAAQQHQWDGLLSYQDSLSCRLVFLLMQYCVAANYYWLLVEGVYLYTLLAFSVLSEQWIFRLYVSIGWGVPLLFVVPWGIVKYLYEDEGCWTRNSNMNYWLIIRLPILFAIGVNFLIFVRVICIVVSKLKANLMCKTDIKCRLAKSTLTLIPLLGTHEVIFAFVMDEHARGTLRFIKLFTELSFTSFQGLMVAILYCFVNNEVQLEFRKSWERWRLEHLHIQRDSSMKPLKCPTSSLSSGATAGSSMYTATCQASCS
recombinant human glucagon receptor (human), sequence (P47871 26-477): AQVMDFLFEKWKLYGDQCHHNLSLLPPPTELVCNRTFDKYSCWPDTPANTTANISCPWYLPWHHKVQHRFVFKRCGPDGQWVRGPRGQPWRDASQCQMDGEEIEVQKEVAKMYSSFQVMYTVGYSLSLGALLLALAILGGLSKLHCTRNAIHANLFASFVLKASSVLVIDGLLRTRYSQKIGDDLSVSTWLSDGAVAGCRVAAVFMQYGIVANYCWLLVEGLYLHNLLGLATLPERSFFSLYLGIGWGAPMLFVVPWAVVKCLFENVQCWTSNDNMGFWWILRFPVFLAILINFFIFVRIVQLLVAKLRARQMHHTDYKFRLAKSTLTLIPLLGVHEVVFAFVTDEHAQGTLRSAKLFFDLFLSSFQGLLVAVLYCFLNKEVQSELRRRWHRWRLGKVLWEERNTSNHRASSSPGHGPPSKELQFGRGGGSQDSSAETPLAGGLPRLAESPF
dulaglutide (Fc fusion), sequence (chain): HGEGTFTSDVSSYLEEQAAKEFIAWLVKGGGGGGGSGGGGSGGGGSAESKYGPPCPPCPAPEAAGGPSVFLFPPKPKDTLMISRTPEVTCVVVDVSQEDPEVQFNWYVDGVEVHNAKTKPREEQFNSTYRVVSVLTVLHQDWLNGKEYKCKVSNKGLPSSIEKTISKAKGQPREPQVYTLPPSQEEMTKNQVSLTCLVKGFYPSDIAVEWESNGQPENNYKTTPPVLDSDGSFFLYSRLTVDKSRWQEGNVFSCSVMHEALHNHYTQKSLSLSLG

As for dulaglutide (Fc fusion), in test [1], the EC50, GIP Receptor Assay; sample C6.5-4 C.-4 wk was more than 100 nM; the EC50, GIP Receptor Assay; sample C6.5-40 C.-4 wk is more than 100 nM; the EC50, GIP Receptor Assay; sample C6.5MT-4 C.-4 wk is more than 100 nM; the EC50, GIP Receptor Assay; sample C6.5MT-40 C.-4 wk was more than 100 nM. For the same substance, in test [2], the EC50, Gcg Receptor Assay; sample C6.5-4 C.-4 wk amounted to 51.9 nM; the EC50, Gcg Receptor Assay; sample C6.5-40 C.-4 wk was more than 100 nM; the EC50, Gcg Receptor Assay; sample C6.5MT-4 C.-4 wk came to 54 nM; the EC50, Gcg Receptor Assay; sample C6.5MT-40 C.-4 wk was more than 100 nM. In test [3], this substance showed an EC50, GLP-1 Receptor Assay; sample C6.5-4 C.-4 wk of 0.37 nM; an EC50, GLP-1 Receptor Assay; sample C6.5-40 C.-4 wk of 0.31 nM; an EC50, GLP-1 Receptor Assay; sample C6.5MT-4 C.-4 wk of 0.4 nM; an EC50, GLP-1 Receptor Assay; sample C6.5MT-40 C.-4 wk of 0.29 nM.
